{
  "source": "paper PMC2438614",
  "about": "“Antibodies Targeting the PfRH1 Binding Domain Inhibit Invasion of Plasmodium falciparum Merozoites” (PLoS Pathogens, 2008)",
  "proteins": {"B1": {"name": "recombinant RII-3 of P. falciparum reticulocyte binding protein homologue 1 (PfRH1), amino acids 500 to 833 (domain or fragment)", "chain": "LQIVQQKLLEIKQKKNDITHKVQLINHIYKNIHDEILNKKNNEITKIIINNIKDHKKDLQDLLLFIQQIKQYNILTDHKITQCNNYYKEIIKMKEDINHIHIYIQPILNNLHTLKQVQNNKIKYEEHIKQILQKIYDKKESLKKIILLKDEAQLDITLLDDLIQKQTKKQTQTQTQTQKQTLIQNNETIQLISGQEDKHESNPFNHIQTYIQQKDTQNKNIQNLLKSLYNGNINTFIDTISKYILKQKDIELTQHVYTDEKINDYLEEIKNEQNKIDKTIDDIKIQETLKQITHIVNNIKTIKKDLLKEFIQHLIKYMNERYQNMQQGYNNLTN", "notes": "region II amino acids 500 to 833 (334 residues); Cloned EcoRI/XhoI into pET24a(+); no cleavage of the tag is described; Primers are in Protocol S1; also called rRII-3; source: E. coli BL21-CodonPlus-RIL, purified (Ni-NTA, MonoS ion exchange); not shown: His6, C-terminal, kept"}},
  "molecular_target": "the molecule itself",
  "assay": "SEC; gel filtration of purified recombinant rRII-3; column and buffer not told in the text shown (Figure S3)",
  "data": [
    {"protein": "B1", "values": [
      {"measurement": "stoichiometry N", "value": 3}
    ]}
  ]
}
